From patent US20210277146A1 (BEIJING DONGFANG BIOTECH, published 2021)

Legend:
[1] = molecular target: T1, PCSK9-His (UniProt Q8NBP7 31-692); test: ELISA, PCSK9-His coated, complete antibody titrated, anti-human IgG-HRP
T1 construct: also called antigen PCSK9-His; Proprotein Convertase Subtilisin/Kexin Type 9; not shown: His tag
Procedure: Coating PCSK9-His (300 ng/well/100 μl) by 0.01M PBS buffer at pH 7.2 overnight at 4° C., washing three times with PBST (1‰ Tween 20) of 300 μl/well, further adding PBST-4% milk, and blocking for one hour at 37° C.; adding complete antibodies DFSK9-1, DFSK9-12, DFSK9-13, DFSK9-14, DFSK9-15, DFSK9-16, DFSK9-17, DFSK9-18, DFSK9-19, DFSK9-20 and DFSK9-21 of different dilution degrees; the highest concentration of the 11 complete antibodies is 50 μg/ml, diluting at a five-time gradient, diluting for eight gradients for each complete antibody, and incubating for one hour at 37° C.; washing 5 times with PBST of 300 μl/well, further adding a goat-anti-human IgG-HRP secondary antibody diluted by PBST-4% milk at a ratio of 1:5000, and incubating for one hour at 37° C.; washing 5 times with PBST of 300 μl/well, developing by using a Tetramethylbenzidine (TMB) developing kit (100 μl/well), developing for 10 minutes at a room temperature, and terminating developing with 2M H₂SO₄ (50 μl/well); reading numbers by using a microplate reader at wavelengths of 450 nm and 630 nm; analyzing data and drawing pictures by using software GraphPad Prism 5Demo, and results are shown in FIG. 8 and table 2.

[2] = molecular target: T2, PCSK9 (UniProt Q8NBP7 31-692, limits assumed); test: SPR BIAcore X100, antibody captured by goat anti-human IgG on CM5, PCSK9 as analyte
T2 construct: Printed only as 'PCSK9' in Embodiments 5.4 and 6; also called Proprotein Convertase Subtilisin/Kexin Type 9; PCSK9 solution

[3] = molecular target: T1, PCSK9-His; test: competition ELISA, LDLR-Fc coated, PCSK9-His 2 ug/ml, antibody titrated, anti-His-HRP
Procedure: Coating LDLR-Fc (100 ng/well/100 μl) by 0.01M PBS buffer at pH 7.2 overnight at 4° C., washing three times with PBST, further adding PBST-4% milk, and blocking for one hour at 37° C.; further adding 2 μg/ml PCSK9-His (100 μlwell) diluted by PBST-4% milk, and incubating to one hour at 37° C.; adding complete antibodies DFSK9-1, DFSK9-12, DFSK9-13, DFSK9-14, DFSK9-15, DFSK9-16, DFSK9-17, DFSK9-18, DFSK9-19, DFSK9-20 and DFSK9-21 of different dilution degrees; the highest concentration of the 11 complete antibodies is 100 μg/ml, diluting at a five-time gradient, diluting for eight gradients for each complete antibody, and incubating for 2 hours at 37° C.; washing 5 times with PBST, further adding a mouse-anti His IgG-HRP secondary antibody diluted by PBST-4% milk, and incubating for 1 hour at 37° C.; developing by using the TMB developing kit (100 μl/well), developing for 10 minutes at the room temperature, and terminating developing with 2M H₂SO₄ (50 μl/well); reading numbers by using the microplate reader at 450 nm and 630 nm; analyzing data and drawing pictures by using software GraphPad Prism 5 Demo, and results are shown in FIG. 9 and table 3.

[4] = molecular target: T2, PCSK9; test: cell-based or functional assay

T1 sequence (Q8NBP7 31-692 limits assumed): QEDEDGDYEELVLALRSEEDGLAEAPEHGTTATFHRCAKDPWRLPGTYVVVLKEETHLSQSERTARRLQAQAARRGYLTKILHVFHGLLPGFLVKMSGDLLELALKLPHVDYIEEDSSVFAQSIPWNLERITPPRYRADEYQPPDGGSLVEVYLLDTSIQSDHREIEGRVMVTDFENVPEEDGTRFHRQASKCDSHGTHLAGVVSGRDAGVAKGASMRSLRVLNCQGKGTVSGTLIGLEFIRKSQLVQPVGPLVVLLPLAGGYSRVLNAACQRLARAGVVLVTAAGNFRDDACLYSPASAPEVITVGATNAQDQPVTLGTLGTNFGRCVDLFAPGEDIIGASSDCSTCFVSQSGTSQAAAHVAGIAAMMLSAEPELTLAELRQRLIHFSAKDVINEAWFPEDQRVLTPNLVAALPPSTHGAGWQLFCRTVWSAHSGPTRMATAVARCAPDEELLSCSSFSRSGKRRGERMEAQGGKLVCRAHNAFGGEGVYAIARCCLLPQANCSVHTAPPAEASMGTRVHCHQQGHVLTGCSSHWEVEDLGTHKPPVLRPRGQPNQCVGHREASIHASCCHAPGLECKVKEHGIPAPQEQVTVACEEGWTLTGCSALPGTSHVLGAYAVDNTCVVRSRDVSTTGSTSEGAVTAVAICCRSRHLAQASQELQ
T2 sequence (Q8NBP7 31-692 limits assumed): as above

Binder | EC50 [1] [µg/mL] | Kd [2] [nM] | koff [2] [s⁻¹] | kon [2] [M⁻¹ s⁻¹] | IC50 [3] [µg/mL] | EC50 value of bioactivity testing (BODIPY-LDL uptake in HepG2 cells, RFU) [4] [nM]
DFSK9-1 complete antibody (antibody, V domains shown) VH: QVQLVQSGAEVKRPGASVKVSCKASGGTFTNNAISWVRQAPGQGLEWMGRIIPMFGMANYAQKLQGRGTMTTDPSTSTAYMELRSLRSDDTAVYYCAREGIPMIWGQGTTVTVSS VL: DIQMTQSPSSLSASVGDRVTITCRASQSIDNRLTWYQQKPGKAPKLLIYDASSRQSGVPSRFSGSGSGTDFTLTISSLQPEDFATYYCQQPENDPTTFGQGTKVEIK | 0.171 | 0.175 | 9.19e-05 | 518000 | 0.847 | 
DFSK9-13 complete antibody (antibody, V domains shown) VH: QVQLVQSGAEVKKPGASVKVSCKASGYSLTSYGISWVRQAPGQGLEWMGWVSFYQGNTNYAQKLQGRGTMTTDPSTSTAYMELRSLRSDDTAVYYCARGYGMTVWGQGTTVTVSS VL: DIQMTQSPSSLSASVGDRVTITCRASQDVDSWLTWYQQKPGKAPKLLIYGASNLASGVPSRFSGSGSGTDFTLTISSLQPEDFATYYCQQDSKIPLTFGQGTKVEIK | 0.0835 | 0.052 | 2.99e-05 | 575000 | 0.383 | 29.6
DFSK9-20 complete antibody (antibody, V domains shown) VH: QVQLVQSGAEVKKPGASVKVSCKASGYSLTSYGISWVRQAPGQGLEWMGWVSFYNGNSNYAQKLQGRGTMTTDPSTSTAYMELRSLRSDDTAVYYCARGFGMDRWGQGTTVTVSS VL: DIQMTQSPSSLSASVGDRVTITCRASQNINNWLNWYQQKPGKAPKLLIYGASTRPTGVPSRFSGSGSGTDFTLTISSLQPEDFATYYCQQWDDTPNTFGQGTKVEIK | 0.0337 | 0.0157 | 1.45e-05 | 925000 | 0.216 | 17.9
DFSK9-12 complete antibody (antibody, V domains shown) VH: QVQLVQSGAEVKKPGASVKVSCKASGYTVTSYGISWVRQAPGQGLEWMGWLSFYNGNTNYAQKLQGRGTMTTDPSTSTAYMELRSLRSDDTAVYYCARGYSLDVWGQGTTVTVSS VL: DIQMTQSPSSLSASVGDRVTITCRASQSVRNWLDWYQQKPGKAPKLLIYGASTLESGVPSRFSGSGSGTDFTLTISSLQPEDFATYYCQQDNDIPLTFGQGTKVEIK | 0.0646 | 0.119 | 4.98e-05 | 418000 | 0.266 | 
DFSK9-18 complete antibody (antibody, V domains shown) VH: QVQLVQSGAEVKKPGASVKVSCKASGYTVTSYGISWVRQAPGQGLEWMGWVSFYNGNSNYAQKLQGRGTMTTDPSTSTAYMELRSLRSDDTAVYYCARGYSLDVWGQGTTVTVSS VL: DIQMTQSPSSLSASVGDRVTITCRASQNINSWLNWYQQKPGKAPKLLIYGASSRQSGVPSRFSGSGSGTDFTLTISSLQPEDFATYYCQQWFDVPTTFGQGTKVEIK | 0.0339 | 0.00389 | 1.99e-06 | 512000 | 0.107 | 23.9
DFSK9-17 complete antibody (antibody, V domains shown) VH: QVQLVQSGAEVKKPGASVKVSCKASGYTVTSYGISWVRQAPGQGLEWMGWVSFYNGNSNYAQKLQGRGTMTTDPSTSTAYMELRSLRSDDTAVYYCARGYSLDVWGQGTTVTVSS VL: DIQMTQSPSSLSASVGDRVTITCRASQNINNWLNWYQQKPGKAPKLLIYGASTRPTGVPSRFSGSGSGTDFTLTISSLQPEDFATYYCQQWDDTPNTFGQGTKVEIK | 0.0314 | 0.00156 | 1.84e-06 | 1.18e+06 | 0.089 | 18.5
DFSK9-21 complete antibody (antibody, V domains shown, also called DF5K9-21) VH: QVQLVQSGAEVKKPGASVKVSCKASGYSLTSYGISWVRQAPGQGLEWMGWVSFYNGQTNYAQKLQGRGTMTTDPSTSTAYMELRSLRSDDTAVYYCARGFGMDRWGQGTTVTVSS VL: DIQMTQSPSSLSASVGDRVTITCRASQNINNWLNWYQQKPGKAPKLLIYGASTRPTGVPSRFSGSGSGTDFTLTISSLQPEDFATYYCQQWDDTPNTFGQGTKVEIK | 0.0282 | 0.00716 | 4.24e-06 | 592000 | 0.161 | 20.3
DFSK9-16 complete antibody (antibody, V domains shown) VH: QVQLVQSGAEVKKPGASVKVSCKASGYTVTSYGISWVRQAPGQGLEWMGWVSFYQGNTNYAQKLQGRGTMTTDPSTSTAYMELRSLRSDDTAVYYCARGFGMDRWGQGTTVTVSS VL: DIQMTQSPSSLSASVGDRVTITCRASQNINSWLNWYQQKPGKAPKLLIYGASSRQSGVPSRFSGSGSGTDFTLTISSLQPEDFATYYCQQWFDVPTTFGQGTKVEIK | 0.0562 | 0.0461 | 5.61e-05 | 1.22e+06 | 0.282 | 23.8
DFSK9-19 complete antibody (antibody, V domains shown) VH: QVQLVQSGAEVKKPGASVKVSCKASGYSLTSYGISWVRQAPGQGLEWMGWVTFYNGNTNYAQKLQGRGTMTTDPSTSTAYMELRSLRSDDTAVYYCARGFGLSVWGQGTTVTVSS VL: DIQMTQSPSSLSASVGDRVTITCRASQNVNNWLNWYQQKPGKAPKLLIYAASTRETGVPSRFSGSGSGTDFTLTISSLQPEDFATYYCQQDNDMPLTFGQGTKVEIK | 0.0832 | 0.186 | 7.34e-05 | 395000 | 0.533 | 
DFSK9-15 complete antibody (antibody, V domains shown) VH: QVQLVQSGAEVKKPGASVKVSCKASGYTVTSYGISWVRQAPGQGLEWMGWVSFYNGQTNYAQKLQGRGTMTTDPSTSTAYMELRSLRSDDTAVYYCARGYSLDVWGQGTTVTVSS VL: DIQMTQSPSSLSASVGDRVTITCRASQNINNWLNWYQQKPGKAPKLLIYGASTRPTGVPSRFSGSGSGTDFTLTISSLQPEDFATYYCQQWDDTPNTFGQGTKVEIK | 0.0397 | 0.00875 | 4.75e-06 | 542000 | 0.114 | 15.3
DFSK9-14 complete antibody (antibody, V domains shown) VH: QVQLVQSGAEVKKPGASVKVSCKASGYSLTSYGISWVRQAPGQGLEWMGWVSFYNGQTNYAQKLQGRGTMTTDPSTSTAYMELRSLRSDDTAVYYCARGYGMSIWGQGTTVTVSS VL: DIQMTQSPSSLSASVGDRVTITCRASQNINSWLNWYQQKPGKAPKLLIYGASSRQSGVPSRFSGSGSGTDFTLTISSLQPEDFATYYCQQWFDVPTTFGQGTKVEIK | 0.0422 | 0.0293 | 7.9e-05 | 2.7e+06 | 0.146 | 16.6
